Reference: the DeepSol protein solubility set

Test: soluble on expression in E. coli; label from the status in PepcDB or PDB records

| Sequence | soluble on expression in E. coli |
| --- | --- |
| MMVMTDKFNYEELGLKVGLEIHRQLDTKKLFSPVPSELSDKVEFTFQRRLRPTMSELGEIDPAALEEFKKGRVYVYEGNYELTDLVYMDEEPPRGPDREALEVALQIAYLLNAKPVDEVYYMRKIVIDGSNVSGFQRTAIIATDGKVETPWGAVGIPTICLEEDAARIIERKDKEVIYRLDRLGIPLIEISTTPDIHHPEQAKVVAKFIGDALRATKKVKRGLGTIRQDLNVSIKGGARIEIKGVQELDMIPIIIEREVERQLNLLKIRDELRKRGVKPKDIKEEFYDVTDIFENTKSKIIARVIKKGGKVLAIKLPKFRGLIGREIQPGRRLGTEFADRAKKYVPGIFHIDELPNYGISQEEVNKVIERLNLSEEDAFVLVAAEEEKAKNALREVIKRAREAIEGVPEETRRALPDGNTEYMRPLPGKARMYPETDIPPLRIPDDLKKKIKENLPELPQAKVERYVKEYKLDRSLAQTLVDDERDELFEELVSMGVKPSLAASILVVVLKGLRKEVPIENVTDEHIREAFQLYLEGKIAKEAFEEIFKELARNPSKSAREVAEEKGLTLLSEEEVTRIIEEVIQQNIEVVKAKGMGAMGLIMGRVMAKVRGKADGKLVSQIVRRKLQEISGG | soluble |
| MGSDKIHHHHHHMPCKNFFTTRPIMEEDCLWDKRRKIVDDLFRTVLRGNIAILLGPRRVGKTSVVNVISQKFAKRRNHHYIYFNFSRFIGARAISIADIEPKRTSLKLITTSKSYVISLKGISVEVRKTSIEEFTSDFSTLVRILSQNSERGLLIFDEAQVLARLKNLDFRGLIQEITDSYPNISMIFTGSMPGLLIEYLNPGPDKPNFMRASETFTLSRWNVEEGLEFLKKGFESYGISVRNELELERAVKELGGIPGFISYYGITVINLVRSGVPVEKALPRALEESKRYALEEWKKDLEAFLNVYNSPIYVEVMKVLASSYPTALKGAEVYRRMNRAPKRIQHIYKYLDVLEKVGFIRSEGGKYWIEDPILRELLT | not soluble |
| MSLEILTAGPMLTVQDAGRFGLRHMGVSPAGPIDRAAMALANALVGNDPGAAALEFAGPAGRFRCDRPVRFAVAGADCPLRIDARTVSPGESHRLNPGETLTVGVPEGAVWAYLAFSGAIASPEVLGSRATHLRSGVGGRALGAGDRLPLGEDDPEAPCLRPGLRLEAAAPFRETGPIRLILGPQDDHFAPEVIARLTGCDFTVTPQRDRMAMVLGGVELPAERGHDIVSDGTVPGSVQVPGSGTPLVLLAESQTTGGYPKIGTVASVDLARLAQMPVGARFRFALISAREGEDLWIARQAR | not soluble |
| MTSGGNSIEPSVVAEAEKMLFCYQYDQTITISITSSADPCPLCNGGFLDEYVDPNPNPIPNLILPMSDPISSRFSFIPVMDFTNPSFLGESMEPQSTQQQLNAFDPNQLSDQANPLAGNHGDYFFGRGLEDLI | not soluble |
| GPAIAENLYFQSPQLNGGGGDDLGANDELISFKDEGEQEEKSSENSSAERDLADVKSSLVNESETNQNSSSDSEAERRPPPRSESFRDKSRESLEEAAKRQDGGLFKGPPYPGYPFIMIPDLTSPYLPNGSLSPTARTYLQMKWPLLDVQAGSLQSRQALKDARSPSPAHIVSNKVPVVQHPHHVHPLTPLITYSNEHFTPGNPPPHLPADVDPKTGIPRPPHPPDISPYYPLSPGTVGQIPHPLGWQGQPVYPITTGGFRHPYPTALTVNASMSRFPPHMVPPHHTLHTTGIPHPAIVTPTVKQESSQSDVGSLHSSKHQDSKKEEEKKKPHIKKPLNAFMLYMKEMRAKVVAECTLKESAAINQILGRRWHALSREEQAKYYELARKERQLHMQLYPGWSARDNYGKKKKRKRDKQPGETNEHSECFLNPCLSLPPITGEKKSAFATYKVKAAASAHPLQMEAY | soluble |
| MSLGKATGFLEFGRELPKKIDPAERIKNNKEFVLNQEFGKKINQQASRCMDCGVPFCHNGCPIGNIIPEFNDAVYRDSWEEAWNILSSTNNFPEFTGRVCPAPCETACVLGINQDPITICNIEKTIVERAYQEGYAKPKTPRSRTGKTVAIIGSGPAGLAAAEQLNAAGHSVTVFERDEKVGGLLRFGIPDFKLGMDVIDRKINLMEQAGVKFVVNAHIGVDINAQQLRQEFDAVLLTGGSTVPRDLSIPGRDLKGVYFAMQFLAQNNRRANGMDLKGEEIHAKGKHVVVIGGGDTGSDCVGTSNRHGAASITQVEIMPIPPQKRPVNMPWPQYPMILRTSTSHEEGCERHWNILTKEFIGNEQGEVTGLRIADIVWKDAAPGERPSFDEVVGSERVIPCDMAFLAMGFLHPEPHGVLAQLGIKLDERGNVATQDFATNQKGVFAAGDMRTGQSLVVRCINEGRECARAVDTFLMGNTHLEAKADSLMLSAEGHHHHHH | soluble |
| AIAEPGSPAGAGAEAPAFYSERKLSRKQLKKLAKAEREYEEERRKELEAAQAVDTAQKRELARIESILRTHALRMEYVEPDGHCLFRALVRQLRPLIQSGLFDTYFPAADTETRSALLTWSTIPDEMEAVWLLRKTLASFIRRRGTEFFPFIVGELDPQGTLLDASDDPAERVAQYCARLEDGTLWGGQPELQAVALALRCRVFVFADPEILPNGMLVMGADDASTDTGAESVTALRVSFHKQFFSLGEHYHAVVPADDSRGDARDPRISAS | soluble |
| MKNIVIVGGGVAGTITANYLAMKLREEIREKNVSITLISDREKQLYEPGLLYLIFNRMEESEILKDVKYLLDPLIELKIARATKIDAEKSRVELENGEVVNYDYLVIATGSRVAPEEMPGLVDGGHWFYNLDGAKRLREELARFKKGKVVVSVMGIPHKCPVAPIEVTFMLHEFFKIHGVRKDVELLYTYPINRVFTMEEVSDLVQKMFDERGINYKTFFNPVSIDPEKKVIETLEGEEEPYDLLIAIPPHKGSQVIIDSGLGDRDGWVPTDRYTLKAEGLENVYVVGDATNLPVSKAGSVAHFEAEVVAENIAAEIKGLPPTARYFGKAMCFIETGFSEATYIWFDYETPPKFVKPNKFIHWMKLAYNRMYWLTARGMLLEHHHHHH | soluble |
| MAPYKKSKQKQQKIQKERLRQQQKLDLAEGSVNIPDQDRSRSQDFSMNSTNSSALQDPLQQQPRPVETEKQQKARKERLRYQMKQLGTPCEPVTFSEEITKQLDELYESDDLPDMGLKSVWKRRLGIPMKKLNDWLKQKAFEKCHVSAQTGSCESSKSNSPSESTKSMGSAVLSSSTEPRTPEESHCAPEKSPESTENASPLSSSAEPETPEETSTSMVQIPENFKNKRLSQDLVDKLQELFQINEMPGREISEQWAQQLGISLKTLNNWMQKKRSQKLHPEQAKLKSQRWQETRRLRRAGLNQEKVEKALPYLEAAFKRCQFATQQTMAELKLNTSLQKSQIRLWFSRRRKAPDATHVPAIESDSDDLVELRALFNATEEDDDSDIEILRDTRQEQEEYRNRPEVRAMIERMFGVGGGGGSLDSGIPLQ | not soluble |
| MPKLVTWMNNQRVGELTKLANGAHTFKYAPEWLASRYARPLSLSLPLQRGNITSDAVFNFFDNLLPDSPIVRDRIVKRYHAKSRQPFDLLSEIGRDSVGAVTLIPEDETVTHPIMAWEKLTEARLEEVLTAYKADIPLGMIREENDFRISVAGAQEKTALLRIGNDWCIPKGITPTTHIIKLPIGEIRQPNATLDLSQSVDNEYYCLLLAKELGLNVPDAEIIKAGNVRALAVERFDRRWNAERTVLLRLPQEDMCQTFGLPSSVKYESDGGPGIARIMAFLMGSSEALKDRYDFMKFQVFQWLIGATDGHAKNFSVFIQAGGSYRLTPFYDIISAFPVLGGTGIHISDLKLAMGLNASKGKKTAIDKIYPRHFLATAKVLRFPEVQMHEILSDFARMIPAALDNVKTSLPTDFPENVVTAVESNVLRLHGRLSREYGSKLEHHHHHH | soluble |
| MSPQTRPDAMSVVQERQVLRVGTLINPTSYYFDHDREQGFEYDLAKRFADRLGVELEMVPRFDVNDLFTMLRRGEVDIVAAGLDRTSTRAQLFRFSPPYDIISQKVVFKQGSRQRPRDLQQITDGEIVVVEGSSHHEFLKSLGDSIPTLKWRATRDHDAVELLQMVISGEVDYTITDSTALDIQRRFHPDLSVAFTVKHDQDIAWALPQGKDDSLFAAVIEYFGEIRSSGRLAHIKEQHFGHVKQFNYVTTSLFIEAVEQVLPGYIETFKEHSGSLDWRLLAAISYQESLWNPRAVSPTGVRGMMMLTLPTAKAMGVKSRLNAEQSIRGGARYLERMLNRVPARIPQPDRTWFAIAAYNIGFGHLEDARIITERQGGNPDRWVDVKKRLPLLRQKQFYRHTRYGFARGDEPVTYVGNIRRFYDTLKYLDEQGRLLEHHHHHH | soluble |
| MADILLLDNVDSFTYNLVDQLRASGHQVVIYRNQIGAEVIIERLQHMEQPVLMLSPGPGTPSEAGCMPELLQRLRGQLPIIGICLGHQAIVEAYGGQVGQAGEILHGKASAIAHDGEGMFAGMANPLPVARYHSLVGSNIPADLTVNARFGEMVMAVRDDRRRVCGFQFHPESILTTHGARLLEQTLAWALAK | soluble |
| MGKRLLDKLWERHVVTTNENGLDLLYIDLHLVHEVTSPQAFEGLRLTNRTVRRPDLTFATMDHNIPTKDVWNITDRIAKQQLDTLRENCKQFQVPLADIGDEEQGIVHVIGPELGLTQPGKTIVCGDSHTATHGAFGALAFGIGTSEVEHVLATQTLWQRKPKAMGIELKGKLQKGVYAKDIILHLLSKYGVAVGTGYVMEFYGETIGTMEMEERMTLCNMAIEGGAKAGIIAPDEKTFAYVKGRKYAPRDYETFEKKWFELYTDADAIYDLHISIDVTDLAPYVTWGTNPSMGVRIDEKLPEKHDVNDERAFSYMGLIPGQSTYDIPVQHVFIGSCTNSRLSDLEIAASVVKGRKVKEGVRALVVPGSKRVRDAAMQKGLHHIFEEAGFEWREPGCSMCLGMNPDQVPEGEHCASTSNRNFEGRQGKGARTHLVSPAMAAAAALYGHFVDIRKESYDGAISYS | not soluble |
| NAMPPIIKRRVMRKIIIASQNPAKVNAVRSAFSTVFPDQEWEFIGVSVPSEVADQPMSDEETKQGALNRVRNAKQRHPGAEYYVGLEAGIEENKTFAWMIVESDQQRGESRSACLMLPPLVLERLRQAKELGDVMDEVFGTENIKQKGGAIGLLTRHHLTRSTVYHQALILALIPFINPEHYPSA | soluble |
| MATGQDRVVALVDMDCFFVQVEQRQNPHLRNKPCAVVQYKSWKGGGIIAVSYEARAFGVTRSMWADDAKKLCPDLLLAQVRESRGKANLTKYREASVEVMEIMSRFAVIERASIDEAYVDLTSAVQERLQKLQGQPISADLLPSTYIEGLPQGPTTAEETVQKEGMRKQGLFQWLDSLQIDNLTSPDLQLTVGAVIVEEMRAAIERETGFQCSAGISHNKVLAKLACGLNKPNRQTLVSHGSVPQLFSQMPIRKIRSLGGKLGASVIEILGIEYMGELTQFTESQLQSHFGEKNGSWLYAMCRGIEHDPVKPRQLPKTIGCSKNFPGKTALATREQVQWWLLQLAQELEERLTKDRNDNDRVATQLVVSIRVQGDKRLSSLRRCCALTRYDAHKMSHDAFTVIKNCNTSGIQTEWSPPLTMLFLCATKFSASAPSSSTDITSFLSSDPSSLPKVPVTSSEAKTQGSGPAVTATKKATTSLESFFQKAAERQKVKEASLSSLTAPTQAPMSNSPSKPSLPFQTSQSTGTEPFFKQKSLLLKQKQLNNSSVSSPQQNPWSNCKALPNSLPTEYPGCVPVCEGVSKLEESSKATPAEMDLAHNSQSMHASSASKSVLEVTQKATPNPSLLAAEDQVPCEKCGSLVPVWDMPEHMDYHFALELQKSFLQPHSSNPQVVSAVSHQGKRNPKSPLACTNKRPRPEGMQTLESFFKPLTH | soluble |
| MARVRFENKRVNMSKLSQFGFEPNQNGQYQFRILIMQGQFEMIIELNTDGSLNTTLTDTTTSEVYVLHLTSQAHGQFVGQVAQAYQDVLYNIEQHCYDNDVFQSTPERKLIAQVKAAYGDDLEFLWPKFPQNAVWRRSDTHKWYGALLTVTSDKLALPGATHVVTVLDLRARPEDLSMLIDGQHYLPGYHMNKKHWYSILLDDVVPLATIMDDVKVSYMLAKLEHHHHHH | not soluble |
